Measured values: patent publication US20130149305A1 (UNIVERSITY OF MARYLAND BALTIMORE COUNTY, published 2013)
Blank lines part the entries; values can stand above or below the molecule they belong to.

Key:
[1] = molecular target: human CD28 on PHA-activated T cells of PBMC (human) (UniProt P10747); assay: cell-based or functional assay
[2] = molecular target: T1, mouse PDL1 co-expressed with mouse CD80 on CD80-transfected 4T1 cells (4T1/CD80) (mouse, UniProt Q9EP73 19-290; Q00609 38-306); assay: flow cytometry on IFN-gamma-treated cells, sPD1-Fc detected with anti-PD1-APC
T1 construct: whole, on cells; also called PDL1 on 4T1/CD80 cells; PDL1+CD80+ 4T1/CD80 cells
T1 sequence (Q9EP73 19-290, chain 1 of 2): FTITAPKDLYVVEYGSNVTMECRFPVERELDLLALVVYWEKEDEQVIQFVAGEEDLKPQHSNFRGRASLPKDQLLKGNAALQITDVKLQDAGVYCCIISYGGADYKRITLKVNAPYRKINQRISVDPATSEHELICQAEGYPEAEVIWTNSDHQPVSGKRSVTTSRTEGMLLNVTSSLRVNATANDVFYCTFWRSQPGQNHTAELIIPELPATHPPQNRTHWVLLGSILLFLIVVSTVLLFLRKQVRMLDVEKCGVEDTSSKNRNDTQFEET
T1 sequence (Q00609 38-306, chain 2 of 2): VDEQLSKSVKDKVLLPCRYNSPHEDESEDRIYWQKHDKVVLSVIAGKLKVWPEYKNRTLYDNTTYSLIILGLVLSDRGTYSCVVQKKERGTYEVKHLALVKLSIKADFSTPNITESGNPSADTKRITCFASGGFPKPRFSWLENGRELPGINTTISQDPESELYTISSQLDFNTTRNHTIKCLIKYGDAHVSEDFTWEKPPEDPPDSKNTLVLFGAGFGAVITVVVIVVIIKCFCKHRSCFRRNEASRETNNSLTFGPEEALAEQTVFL

human CD28 on PHA-activated T cells of PBMC (human), sequence (P10747 19-220): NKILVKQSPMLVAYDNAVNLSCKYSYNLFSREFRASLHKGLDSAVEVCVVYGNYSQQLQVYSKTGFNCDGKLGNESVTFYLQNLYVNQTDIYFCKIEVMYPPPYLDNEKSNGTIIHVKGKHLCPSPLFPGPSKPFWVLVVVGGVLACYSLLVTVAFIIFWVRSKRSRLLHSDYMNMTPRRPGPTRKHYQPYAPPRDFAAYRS

increase of IFNγ production by PHA-activated PBMC, no tumor cells (ELISA) [1]: 14 to 28%
Molecule: soluble CD80-Fc: extracellular two domains of human CD80 fused to the Fc domain of IgG1 (Fc fusion)

binding result [2]: no binding
B1: recombinant mouse PD1-Fc fusion protein (Fc fusion, UniProt Q02242 25-167, looked up)
chain: LEVPNGPWRSLTFYPAWLTVSEGANATFTCSLSNWSEDLMLNWNRLSPSNQTEKQAAFCNGLSQPVQDARFQIIQLPNRHDFHMNILDTRRNDSGIYLCGAISLHPKAKIEESPGAELVVTERILETSTRYPSPSPKPEGRFQ
notes: Recombinant reagent; also called sPD1-Fc (mouse); soluble form of PD1; not shown: Fc part
